Measurements: PMC7873624 (Journal of molecular biology, 2020)

Key:
[1] = molecular target: recombinant USP7 UBL1-2 (residues 535–775) (UniProt Q93009 535-775); test: ITC
[2] = molecular target: recombinant USP7 TRAF domain (residues 62–205) (UniProt Q93009 62-205); test: ITC
Chain of recombinant USP7 TRAF domain (residues 62–205) (Q93009 62-205): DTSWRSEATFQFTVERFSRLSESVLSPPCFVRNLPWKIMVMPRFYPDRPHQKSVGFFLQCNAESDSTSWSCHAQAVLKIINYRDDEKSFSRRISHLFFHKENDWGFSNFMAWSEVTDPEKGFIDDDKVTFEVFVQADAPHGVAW

Chain of recombinant USP7 UBL1-2 (residues 535–775) (Q93009 535-775): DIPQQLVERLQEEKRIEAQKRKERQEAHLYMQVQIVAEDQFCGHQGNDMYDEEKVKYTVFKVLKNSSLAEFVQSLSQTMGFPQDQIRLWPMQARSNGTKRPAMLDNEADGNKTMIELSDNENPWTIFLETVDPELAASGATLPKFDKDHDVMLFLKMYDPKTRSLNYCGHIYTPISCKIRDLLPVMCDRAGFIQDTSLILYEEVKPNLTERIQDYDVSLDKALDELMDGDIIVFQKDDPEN

| Binder | Kd [1] | Kd [2] |
| --- | --- | --- |
| SGKHSFKMKDT [Pol ι peptide 438–448] | 169 µM |  |
| SPCEPGTSGFN [Pol ι peptide 573–584] |  | 4.8 µM |
